In experiment [1] the target is AGP from plasma of patients with hepatocellular carcinoma (HCC-AGP) (human) (UniProt P02763). Kind of experiment: reversed S2-ELISA: S2 coated at 5 µg/mL, plasma 1:50, detection with antibody 058. A general note: ELISA stands for enzyme-linked immunosorbent assay.
The target of experiment [2] is desialylated AGP (dsAGP) (human) (UniProt P02763). Kind of experiment: reversed S2-ELISA: S2 coated at 5 µg/mL, dsAGP 2 µg/ml, detection with antibody 058.
For experiment [3], the target named is AGP from plasma of patients with hepatocellular carcinoma (HCC-AGP) (human) (UniProt P02763). Kind of experiment: reversed S2-ELISA, HCC-plasma sample against a normal sample (background); 5 µg/ml S2 coating.
The target is the same in experiment [4]. Kind of experiment: standard lectin ELISA: antibody 058 coated, plasma 1:50, biotinylated S2 at 0.25 µg/mL for detection.
The target of experiment [5] is desialylated AGP (dsAGP) (human) (UniProt P02763). The experiment in a line: standard lectin ELISA: antibody 058 coated, dsAGP 2 µg/ml, biotinylated S2 at 0.25 µg/mL for detection.

Experimental findings from patent US20200319189A1 are described below.

Consider “S2-peptide (monovalent fucose-binding peptide; recombinant form of Aleuria aurantia lectin comprising only binding site 2) (from UniProt P18891 51-161)”, for which the results for the signal to noise ratio in experiment [1] and in experiment [2] were 5.1 and 5.2, respectively. For the same substance, the signal to background ratio in experiment [3] is 10; in experiment [4], 1.05; in experiment [5] it was 1.38.
